A word on the kcat/Km: it is the turnover number divided by the Michaelis constant. For orientation: kcat means the maximal rate divided by the concentration of active sites. What is called Vmax is the rate approached at saturating substrate. What is called Km is the substrate concentration at which the rate is half of its maximum.

Results on two proteins are retold here after ChEMBL document CHEMBL4680222, “Sensitive fluorogenic substrates for sirtuin deacylase inhibitor discovery” (Eur J Med Chem, 2020).

Compound in data set [1]: CC(=O)NCCCC[C@H](NC(=O)[C@H](CC(C)C)NC(=O)[C@H](CCCCN)NC(=O)[C@H](Cc1ccc(O)cc1)NC(C)=O)C(=O)Nc1ccc2c(C)cc(=O)oc2c1
The data set is described as follows: (§1) Substrate activity at human N-terminal His-tagged SIRT1 (183 to 664 residues) expressed in Escherichia coli assessed as ratio of Kcat to Km measured after 1 hr in presence of NAD+ and trypsin by Michaelis-Menten kinetic model based fluorescence assay.

Compound in data set [2]: CC[C@H](C)[C@H](NC(=O)[C@H](CC(C)C)NC(=O)[C@H](CCCNC(=N)N)NC(C)=O)C(=O)N[C@@H](CCCCNC(C)=O)C(=O)Nc1ccc2c(C)cc(=O)oc2c1
The description is as §1.

Compound in data set [3]: CC(=O)NCCCC[C@H](NC(=O)[C@H](CC(C)C)NC(=O)[C@H](CCCCN)NC(=O)[C@H](Cc1ccc(O)cc1)NC(C)=O)C(=O)Nc1ccc2c(C)cc(=O)oc2c1
Nature of the data set: (§2) Substrate activity at human N-terminal His-tagged SIRT1 (183 to 664 residues) expressed in Escherichia coli assessed as Kcat measured after 1 hr in presence of NAD+ and trypsin by Michaelis-Menten kinetic model based fluorescence assay.

Compound in data set [4]: CC[C@H](C)[C@H](NC(=O)[C@H](CC(C)C)NC(=O)[C@H](CCCNC(=N)N)NC(C)=O)C(=O)N[C@@H](CCCCNC(C)=O)C(=O)Nc1ccc2c(C)cc(=O)oc2c1
The description is as §2.

Compound in data set [5]: CC(=O)NCCCC[C@H](NC(=O)[C@H](CC(C)C)NC(=O)[C@H](CCCCN)NC(=O)[C@H](Cc1ccc(O)cc1)NC(C)=O)C(=O)Nc1ccc2c(C)cc(=O)oc2c1
The data set is described as follows: (§3) Substrate activity at human N-terminal His-tagged SIRT1 (183 to 664 residues) expressed in Escherichia coli assessed as Vmax measured after 1 hr in presence of NAD+ and trypsin by Michaelis-Menten kinetic model based fluorescence assay.

Compound in data set [6]: CC[C@H](C)[C@H](NC(=O)[C@H](CC(C)C)NC(=O)[C@H](CCCNC(=N)N)NC(C)=O)C(=O)N[C@@H](CCCCNC(C)=O)C(=O)Nc1ccc2c(C)cc(=O)oc2c1
The description is as §3.

Compound in data set [7]: CC(=O)NCCCC[C@H](NC(=O)[C@H](CC(C)C)NC(=O)[C@H](CCCCN)NC(=O)[C@H](Cc1ccc(O)cc1)NC(C)=O)C(=O)Nc1ccc2c(C)cc(=O)oc2c1
Nature of the data set: (§4) Substrate activity at human N-terminal His-tagged SIRT1 (183 to 664 residues) expressed in Escherichia coli assessed as Km measured after 1 hr in presence of NAD+ and trypsin by Michaelis-Menten kinetic model based fluorescence assay.

Compound in data set [8]: CC[C@H](C)[C@H](NC(=O)[C@H](CC(C)C)NC(=O)[C@H](CCCNC(=N)N)NC(C)=O)C(=O)N[C@@H](CCCCNC(C)=O)C(=O)Nc1ccc2c(C)cc(=O)oc2c1
The description is as §4.

Compound in data set [9]: CC(=O)NCCCC[C@H](NC(=O)OCc1ccccc1)C(=O)Nc1ccc2c(C)cc(=O)oc2c1
Nature of the data set: (§5) Substrate activity at human N-terminal His-tagged SIRT2 (56 to 356 residues) expressed in Escherichia coli assessed as Km measured after 1 hr in presence of NAD+ and trypsin by Michaelis-Menten kinetic model based fluorescence assay.

Compound in data set [10]: CC(=O)NCCCC[C@H](NC(=O)[C@H](CC(C)C)NC(=O)[C@H](CCCCN)NC(=O)[C@H](Cc1ccc(O)cc1)NC(C)=O)C(=O)Nc1ccc2c(C)cc(=O)oc2c1
Described as §5.

Compound in data set [11]: CCCCCCCCCC(=O)NCCCC[C@H](NC(=O)[C@@H](NC(=O)[C@H](CO)NC(=O)[C@H](CO)NC(C)=O)[C@@H](C)CC)C(=O)Nc1ccc2c(C)cc(=O)oc2c1
The data set is described as §5.

Compound in data set [12]: CCCCCCCCCC(=O)NCCCC[C@H](NC(=O)[C@H](CC(=O)O)NC(=O)[C@@H](NC(=O)[C@H](CCC(=O)O)NC(C)=O)[C@@H](C)O)C(=O)Nc1ccc2c(C)cc(=O)oc2c1
The description is as §5.

Compound in data set [13]: CCCCCCCCCCCCCC(=O)NCCCC[C@H](NC(=O)OCc1ccccc1)C(=O)Nc1ccc2c(C)cc(=O)oc2c1
The description is as §5.

Compound in data set [14]: CC[C@H](C)[C@H](NC(=O)[C@H](CC(C)C)NC(=O)[C@H](CCCNC(=N)N)NC(C)=O)C(=O)N[C@@H](CCCCNC(C)=O)C(=O)Nc1ccc2c(C)cc(=O)oc2c1
The data set is described as §5.

Compound in data set [15]: CC(=O)NCCCC[C@H](NC(=O)OCc1ccccc1)C(=O)Nc1ccc2c(C)cc(=O)oc2c1
Nature of the data set: (§6) Substrate activity at human N-terminal His-tagged SIRT2 (56 to 356 residues) expressed in Escherichia coli assessed as Vmax measured after 1 hr in presence of NAD+ and trypsin by Michaelis-Menten kinetic model based fluorescence assay.

Compound in data set [16]: CC(=O)NCCCC[C@H](NC(=O)[C@H](CC(C)C)NC(=O)[C@H](CCCCN)NC(=O)[C@H](Cc1ccc(O)cc1)NC(C)=O)C(=O)Nc1ccc2c(C)cc(=O)oc2c1
The data set is described as §6.

Compound in data set [17]: CCCCCCCCCC(=O)NCCCC[C@H](NC(=O)[C@@H](NC(=O)[C@H](CO)NC(=O)[C@H](CO)NC(C)=O)[C@@H](C)CC)C(=O)Nc1ccc2c(C)cc(=O)oc2c1
Described as §6.

Compound in data set [18]: CCCCCCCCCC(=O)NCCCC[C@H](NC(=O)[C@H](CC(=O)O)NC(=O)[C@@H](NC(=O)[C@H](CCC(=O)O)NC(C)=O)[C@@H](C)O)C(=O)Nc1ccc2c(C)cc(=O)oc2c1
Described as §6.

Compound in data set [19]: CCCCCCCCCCCCCC(=O)NCCCC[C@H](NC(=O)OCc1ccccc1)C(=O)Nc1ccc2c(C)cc(=O)oc2c1
The data set is described as §6.

Compound in data set [20]: CC[C@H](C)[C@H](NC(=O)[C@H](CC(C)C)NC(=O)[C@H](CCCNC(=N)N)NC(C)=O)C(=O)N[C@@H](CCCCNC(C)=O)C(=O)Nc1ccc2c(C)cc(=O)oc2c1
The data set is described as §6.

Compound in data set [21]: CC(=O)NCCCC[C@H](NC(=O)OCc1ccccc1)C(=O)Nc1ccc2c(C)cc(=O)oc2c1
The data set is described as follows: (§7) Substrate activity at human N-terminal His-tagged SIRT2 (56 to 356 residues) expressed in Escherichia coli assessed as Kcat measured after 1 hr in presence of NAD+ and trypsin by Michaelis-Menten kinetic model based fluorescence assay.

Compound in data set [22]: CC(=O)NCCCC[C@H](NC(=O)[C@H](CC(C)C)NC(=O)[C@H](CCCCN)NC(=O)[C@H](Cc1ccc(O)cc1)NC(C)=O)C(=O)Nc1ccc2c(C)cc(=O)oc2c1
The data set is described as §7.

Compound in data set [23]: CCCCCCCCCC(=O)NCCCC[C@H](NC(=O)[C@@H](NC(=O)[C@H](CO)NC(=O)[C@H](CO)NC(C)=O)[C@@H](C)CC)C(=O)Nc1ccc2c(C)cc(=O)oc2c1
Described as §7.

Compound in data set [24]: CCCCCCCCCC(=O)NCCCC[C@H](NC(=O)[C@H](CC(=O)O)NC(=O)[C@@H](NC(=O)[C@H](CCC(=O)O)NC(C)=O)[C@@H](C)O)C(=O)Nc1ccc2c(C)cc(=O)oc2c1
Described as §7.

Compound in data set [25]: CCCCCCCCCCCCCC(=O)NCCCC[C@H](NC(=O)OCc1ccccc1)C(=O)Nc1ccc2c(C)cc(=O)oc2c1
The data set is described as §7.

Compound in data set [26]: CC[C@H](C)[C@H](NC(=O)[C@H](CC(C)C)NC(=O)[C@H](CCCNC(=N)N)NC(C)=O)C(=O)N[C@@H](CCCCNC(C)=O)C(=O)Nc1ccc2c(C)cc(=O)oc2c1
Described as §7.

Compound in data set [27]: CC(=O)NCCCC[C@H](NC(=O)OCc1ccccc1)C(=O)Nc1ccc2c(C)cc(=O)oc2c1
Nature of the data set: (§8) Substrate activity at human N-terminal His-tagged SIRT2 (56 to 356 residues) expressed in Escherichia coli assessed as ratio of Kcat to Km measured after 1 hr in presence of NAD+ and trypsin by Michaelis-Menten kinetic model based fluorescence assay.

Compound in data set [28]: CC(=O)NCCCC[C@H](NC(=O)[C@H](CC(C)C)NC(=O)[C@H](CCCCN)NC(=O)[C@H](Cc1ccc(O)cc1)NC(C)=O)C(=O)Nc1ccc2c(C)cc(=O)oc2c1
Described as §8.

Compound in data set [29]: CCCCCCCCCC(=O)NCCCC[C@H](NC(=O)[C@@H](NC(=O)[C@H](CO)NC(=O)[C@H](CO)NC(C)=O)[C@@H](C)CC)C(=O)Nc1ccc2c(C)cc(=O)oc2c1
The description is as §8.

Compound in data set [30]: CCCCCCCCCC(=O)NCCCC[C@H](NC(=O)[C@H](CC(=O)O)NC(=O)[C@@H](NC(=O)[C@H](CCC(=O)O)NC(C)=O)[C@@H](C)O)C(=O)Nc1ccc2c(C)cc(=O)oc2c1
The data set is described as §8.

Compound in data set [31]: CCCCCCCCCCCCCC(=O)NCCCC[C@H](NC(=O)OCc1ccccc1)C(=O)Nc1ccc2c(C)cc(=O)oc2c1
The data set is described as §8.

Compound in data set [32]: CC[C@H](C)[C@H](NC(=O)[C@H](CC(C)C)NC(=O)[C@H](CCCNC(=N)N)NC(C)=O)C(=O)N[C@@H](CCCCNC(C)=O)C(=O)Nc1ccc2c(C)cc(=O)oc2c1
The description is as §8.

B1: NAD-dependent protein deacetylase sirtuin-1 (Homo sapiens), Q96EB6 (protein)
chain: MADEAALALQPGGSPSAAGADREAASSPAGEPLRKRPRRDGPGLERSPGEPGGAAPEREVPAAARGCPGAAAAALWREAEAEAAAAGGEQEAQATAAAGEGDNGPGLQGPSREPPLADNLYDEDDDDEGEEEEEAAAAAIGYRDNLLFGDEIITNGFHSCESDEEDRASHASSSDWTPRPRIGPYTFVQQHLMIGTDPRTILKDLLPETIPPPELDDMTLWQIVINILSEPPKRKKRKDINTIEDAVKLLQECKKIIVLTGAGVSVSCGIPDFRSRDGIYARLAVDFPDLPDPQAMFDIEYFRKDPRPFFKFAKEIYPGQFQPSLCHKFIALSDKEGKLLRNYTQNIDTLEQVAGIQRIIQCHGSFATASCLICKYKVDCEAVRGDIFNQVVPRCPRCPADEPLAIMKPEIVFFGENLPEQFHRAMKYDKDEVDLLIVIGSSLKVRPVALIPSSIPHEVPQILINREPLPHLHFDVELLGDCDVIINELCHRLGGEYAKLCCNPVKLSEITEKPPRTQKELAYLSELPPTPLHVSEDSSSPERTSPPDSSVIVTLLDQAAKSNDDLDVSESKGCMEEKPQEVQTSRNVESIAEQMENPDLKNVGSSTGEKNERTSVAGTVRKCWPNRVAKEQISRRLDGNQYLFLPPNRYIFHGAEVYSDSEDDVLSSSSCGSNSDSGTCQSPSLEEPMEDESEIEEFYNGLEDEPDVPERAGGAGFGTDGDDQEAINEAISVKQEVTDMNYPSNKS
In the case of B1, the kcat/Km was determined as 226 M⁻¹ s⁻¹ in [1] and 669 M⁻¹ s⁻¹ in data set [2]. Further, the turnover number (kcat) in data set [3] was 17.3 10^-3/s; in [4] it was 37.9 10^-3/s. The figures for the maximum rate (Vmax) in [5] and in data set [6] were 208 nM/min and 454 nM/min, respectively. The Michaelis-Menten constant (Km) turned out to be 76.5 µM in data set [7] and 56.6 µM in data set [8].

B2: NAD-dependent protein deacetylase sirtuin-2 (Homo sapiens), Q8IXJ6 (protein)
chain: MAEPDPSHPLETQAGKVQEAQDSDSDSEGGAAGGEADMDFLRNLFSQTLSLGSQKERLLDELTLEGVARYMQSERCRRVICLVGAGISTSAGIPDFRSPSTGLYDNLEKYHLPYPEAIFEISYFKKHPEPFFALAKELYPGQFKPTICHYFMRLLKDKGLLLRCYTQNIDTLERIAGLEQEDLVEAHGTFYTSHCVSASCRHEYPLSWMKEKIFSEVTPKCEDCQSLVKPDIVFFGESLPARFFSCMQSDFLKVDLLLVMGTSLQVQPFASLISKAPLSTPRLLINKEKAGQSDPFLGMIMGLGGGMDFDSKKAYRDVAWLGECDQGCLALAELLGWKKELEDLVRREHASIDAQSGAGVPNPSTSASPKKSPPPAKDEARTTEREKPQ
In the case of B2, the Michaelis-Menten constant (Km) amounted to 274 µM in data set [9]; 106 µM in data set [10]; 1.2 µM in [11]; 16.5 µM in data set [12]; 1.7 µM in [13]; 41.6 µM in data set [14]. Besides, the Vmax was found to be 26.3 nM/min in data set [15]; 81.9 nM/min in [16]; 25.5 nM/min in data set [17]; 61.9 nM/min in data set [18]; 1.63 nM/min in data set [19]; 36.1 nM/min in data set [20]. For the same protein, the kcat was 0.98 10^-3/s in data set [21]; 13.6 10^-3/s in data set [22]; 4.25 10^-3/s in [23]; 20.6 10^-3/s in [24]; 0.054 10^-3/s in [25]; 12 10^-3/s in data set [26]. Besides, the specificity constant (kcat/Km) in data set [27] is 3.5 M⁻¹ s⁻¹; in data set [28], 129 M⁻¹ s⁻¹; in data set [29], 3530 M⁻¹ s⁻¹; in [30], 1250 M⁻¹ s⁻¹; in [31], 3.2 M⁻¹ s⁻¹; in data set [32], 289 M⁻¹ s⁻¹.
